Experimental data taken from patent US9701748B2, “Humanized anti-CD22 antibody” (IMMUNOMEDICS, INC., priority 2014, dated 2017).

How the values were obtained:
[1] = tested on: subjects; settings: reported, Morchhauser et al., 2009, Goldenberg et al., Robak & Robak, 2011; cited from earlier work
[2] = tested on: B cells gated from PBMCs of healthy donors; test: Trogocytosis: surface antigen levels on B cells after overnight treatment of PBMCs, flow cytometry; type: cell-based, human
Protocol: (§1) Peripheral blood mononuclear cells (PBMCs) obtained from healthy donors were incubated overnight (16-24 h) with 10 μg/mL of either epratuzumab or an isotype control mAb (hMN-14) and the relative levels of various antigens on the surface of the B cells were analyzed by flow cytometry. PBMCs from heparinized whole blood of normal donors were isolated by density gradient centrifugation on UNI-SEP tubes (Novamed Ltd, Israel). PBMCs were reconstituted in RPMI media supplemented with 10% heat inactivated fetal bovine serum and plated at a cell density of 1.5×10^6/mL in non-tissue culture treated 48-well plates. […] Stained cells were analyzed by flow cytometry on a FACSCALIBUR® (BD Biosciences) using Flowjo (V7.6.5) software. Initially, the lymphocyte population was gated by side vs. forward scattering, and B cells were further gated from this population with the CD19 signal. The mean fluorescence intensity (MFI), obtained with fluorochrome-conjugated antibodies to various cell surface antigens, on the gated B cells was calculated following treatment with epratuzumab, hMN-14 or without antibody. PBMCs from 16 healthy donors were assessed in various experiments.

[3] = tested on: NHL patients; settings: cited from earlier work
[4] = tested on: B cells in PBMCs; test: Relative B cell count after overnight treatment of PBMCs; type: cell-based, human
Protocol: as §1

[5] = target: T1, CD22 (Homo sapiens, UniProt P20273); test: Binding affinity for CD22+ Daudi cells determined by ELISA (FIG. 2); settings: CD22+ Daudi cells, FIG. 2
T1 construct: endogenous in cells; host or cells: Daudi (Burkitt lymphoma) cells
Protocol: FIG. 2. Comparative binding affinity for CD22+ Daudi cells of hLL2 IgG, hRFB4 IgG, chimeric RFB4 conjugated to AD2 peptide, and hMN-14 IgG, as determined by ELISA. The binding affinity of hRFB4 as determined for Daudi cells is about 10-fold higher than that of hLL2 and about 30% higher than the chimeric RFB4.
The hRFB4 antibody was prepared as described above, resulting in a humanized anti-CD22 antibody with variable region sequences as shown in FIG. 1A and FIG. 1B (SEQ ID NO:7 and SEQ ID NO:8). After expression, the binding affinity or CD22+ Daudi cells was compared to that of the hLL2 antibody, comprising the same FR and constant region sequences but different CDR sequences, and to the chimeric RFB4 antibody, comprising the same CDR sequences but different FR and constant region sequences.

[6] = Complement-dependent cytotoxicity in vitro; type: cell-based
[7] = Antibody-dependent cell-mediated cytotoxicity in vitro; type: cell-based
[8] = tested on: circulating B cells; settings: may be overestimated due to use of CD19+ cells to measure B cells; cited from earlier work
[9] = tested on: patients with SLE who have failed at least one previous therapy; test: Combination therapy of SLE with hRFB4 and hLL2; type: in vivo, human; settings: single antibody alone, same dosage and schedule
Protocol: Patients with SLE who have failed at least one previous therapy receive combination therapy with 160 mg each of hRFB4 and hLL2 (epratuzumab), administered s.c. in 2 injections weekly for four weeks. Control groups receive hRFB4 alone, hLL2 alone or irrelevant antibody (hMN-14) at the same dosage and schedule. […] All serum samples evaluated for anti-human antibodies (HAHA) are negative.

[10] = tested on: NHL Burkitt cell lines (Daudi, Raji, and Ramos); test: Surface markers on NHL Burkitt cell lines, isolated or spiked into normal PBMCs; type: cell-based, human
Description: This mechanism of action may explain the limited effectiveness of high doses of epratuzumab compared to lower doses in patients with SLE.

[11] = tested on: Daudi cells; test: Dose-response of trogocytosis of CD22 and CD19 from Daudi cells (FIG. 6A, 6B); type: cell-based, human
[12] = 4 doses of 80, 160 or 320 mg s.c. every two weeks
[13] = 10 μg/mL, overnight, PBMCs of healthy donors

**Q.** With “veltuzumab: humanized IgG1 antibody against CD20” as the molecule, how does the “immunogenicity compared with rituximab” value [1] read?
**A.** less immunogenic in subjects than rituximab

**Q.** What about the “reduction of CD19, CD21 and CD79b compared with epratuzumab” value ([2]; PBMCs of healthy donors, overnight, FIG. 9) of the same molecule?
**A.** greater extent than epratuzumab

**Q.** What about the “objective response in the 80 mg dosage group” value ([3]; 80 mg) of the same molecule?
**A.** 67%

**Q.** What about the “patients showing a complete response in the 80 mg dosage group” value ([3]; 80 mg) of the same molecule?
**A.** one of three

**Q.** And the “CR/CRu (complete response) rate” value [3, 12]?
**A.** 24%

**Q.** And the “objective response rate (CR+CRu+PR)” value [3, 12]?
**A.** 47%

**Q.** What about the “objective responses continued for 60 weeks” value ([3]; 60 weeks) of the same molecule?
**A.** Four out of eight

**Q.** What about the “HAHA in serum samples” value ([3]; all serum samples evaluated) of the same molecule?
**A.** negative

**Q.** And the safety ([3]; s.c.)?
**A.** Only occasional, mild to moderate and transient injection reactions

**Q.** What about the “reduction of the B cell count” value ([4]; 10 μg/mL, overnight, PBMCs of healthy donors, FIG. 9) of the same molecule?
**A.** 40%

B1: hLL2: humanized anti-CD22 antibody hLL2 (epratuzumab) (antibody, V domains shown)
VH: QVQLQQSGAEVKKPGSSVKVSCKASGYTFTSYWLHWVRQAPGQGLEWIGYIYPRNDYTEYNQNFKDKATITADESTNTAYMELSSLRSEDTAFYFCARRDITTFYWGQGTTVTVSS
VL: DIQLTQSPSSLSASVGDRVTMSCKSSQSVLYSANHKNYLAWYQQKPGKAPKLLIYWASTRESGVPSRFSGSGSGTDFTFTISSLQPEDIATYYCHQYLSSWTFGGGTKVQIKR
**Q.** For B1, which Kd [5] is on record?
**A.** 2 nM

**Q.** What about the complement-dependent cytotoxicity [6] of the same molecule?
**A.** negligible

**Q.** And the antibody-dependent cell-mediated cytotoxicity [7]?
**A.** modest, but significant

**Q.** What about the “depletion of circulating B cells in patients, on average” value [8] of the same molecule?
**A.** 35%

**Q.** And the “CD19 level on B cells, % of untreated or control mAb” value [2, 13]?
**A.** 50%

**Q.** And the “CD20 level on B cells, % of untreated or control mAb” value [2, 13]?
**A.** 82%

**Q.** And the “CD21 level on B cells, % of untreated or control mAb” value [2, 13]?
**A.** 52%

**Q.** What about the “CD22 level on B cells, % of untreated or control mAb” value [2, 13] of the same molecule?
**A.** 10%

**Q.** What about the “CD62L level on B cells, % of untreated or control mAb” value [2, 13] of the same molecule?
**A.** 73%

**Q.** What about the “CD79b level on B cells, % of untreated or control mAb” value [2, 13] of the same molecule?
**A.** 70%

**Q.** What about the “change of CD27 (on CD27+ B cells), CD40, CD44, CD45, β7 integrin and LFA-1 (CD11a and CD18)” value [2, 13] of the same molecule?
**A.** < 10 % change

**Q.** What about the “responsiveness of CD27− naive B cells compared to CD27+ memory B cells” value ([2]; CD19, PBMCs from 3 healthy donors) of the same molecule?
**A.** more responsive

**Q.** What about the “time course of the reduction of surface antigens” value ([2]; PBMCs of healthy donors) of the same molecule?
**A.** essentially complete within a few hours

**Q.** And the B cell depletion ([4]; either at 10 μg/mL or 1 mg/mL, ex vivo)?
**A.** did not cause significant B cell depletion

**Q.** What about the objective responses [9] of the same molecule?
**A.** Objective responses are observed

**Q.** And the “reduction of CD22, CD19, CD21, CD20 and CD79b on the surface of B cells” value ([10]; PBMCs from normal donors or lupus patients, and NHL lines spiked into normal PBMCs)?
**A.** substantial reduction

**Q.** What about the “surface markers decreased in isolated NHL cells” value ([10]; isolated NHL cells, no effector cells) of the same molecule?
**A.** only CD22, but not other surface markers, was appreciably decreased

**Q.** And the “minimal concentration to induce the maximal level of trogocytosis of CD19” value ([11]; CD19 from Daudi cell, FIG. 6B)?
**A.** 10 ng/mL

**Q.** What about the “minimal concentration to induce the maximal level of trogocytosis of CD22” value ([11]; CD22 from Daudi cell, FIG. 6A) of the same molecule?
**A.** 10 ng/mL

**Q.** What about the “concentration inducing the maximal level of trogocytosis of CD19 and CD22” value ([11]; dose-response curve, FIG. 6A and 6B) of the same molecule?
**A.** 10 ng/mL
